# Source: CN116284353A (HUASONG SHANGHAI BIOMEDICAL TECH CO LTD, dated 2023)
# T1: EV A71 VLP (Enterovirus A71, UniProt Q66478 2-862)
# T1 construct: Multi-subunit particle
# T1 sequence: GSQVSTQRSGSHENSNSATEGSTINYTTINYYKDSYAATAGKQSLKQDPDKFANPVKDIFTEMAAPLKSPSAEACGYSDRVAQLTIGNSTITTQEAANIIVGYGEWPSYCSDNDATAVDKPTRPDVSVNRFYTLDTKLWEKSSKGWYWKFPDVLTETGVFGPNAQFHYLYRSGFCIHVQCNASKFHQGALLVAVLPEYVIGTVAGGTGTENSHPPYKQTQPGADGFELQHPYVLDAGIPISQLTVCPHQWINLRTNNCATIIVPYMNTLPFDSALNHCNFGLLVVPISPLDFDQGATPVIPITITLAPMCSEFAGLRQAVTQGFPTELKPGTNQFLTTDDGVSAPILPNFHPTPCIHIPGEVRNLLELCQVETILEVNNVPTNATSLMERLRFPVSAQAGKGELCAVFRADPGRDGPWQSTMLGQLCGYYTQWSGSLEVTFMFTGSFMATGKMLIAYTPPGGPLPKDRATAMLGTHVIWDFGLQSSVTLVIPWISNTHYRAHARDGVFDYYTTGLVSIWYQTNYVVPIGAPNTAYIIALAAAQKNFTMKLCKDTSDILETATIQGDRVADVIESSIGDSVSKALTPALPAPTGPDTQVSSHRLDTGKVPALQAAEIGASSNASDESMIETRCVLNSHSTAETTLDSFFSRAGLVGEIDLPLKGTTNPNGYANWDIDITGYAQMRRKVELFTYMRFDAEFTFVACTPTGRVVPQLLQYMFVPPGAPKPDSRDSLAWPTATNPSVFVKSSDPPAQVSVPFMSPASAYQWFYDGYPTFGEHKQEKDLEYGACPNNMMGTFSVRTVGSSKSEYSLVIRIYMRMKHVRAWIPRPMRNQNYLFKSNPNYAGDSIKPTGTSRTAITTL
# B1: 单克隆抗体3C4 (antibody, mouse IgG1, kappa, V domains shown)
# VH: QVTLKESGPGILQPSQTLSLTCSFSGFSLSTSGMGVSWIRQPSGKGLEWLAHIWWDDDKRYNPALKSRLTISKDTSNNQVFLRIASVDTADTATYYCVRIGGYFWGQGTSVTVSS
# VL: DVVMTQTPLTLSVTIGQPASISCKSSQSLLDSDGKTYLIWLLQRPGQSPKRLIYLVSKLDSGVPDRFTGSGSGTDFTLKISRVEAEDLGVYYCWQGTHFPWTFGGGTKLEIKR
# notes: Mouse IgG1 kappa; also called 3C4单抗; 杂交瘤细胞株3C4
# Target: T1, EV A71 VLP
# Test: Western blot on denatured VLP
binder,measurement,value
B1,binding result,no binding (tested: 1μg/mL)
